{"source": "patent US5633227A", "about": "“Secretory leukocyte protease inhibitor as an inhibitor of tryptase” (Miles, Inc., priority 1994, dated 1997)", "molecules": {"B1": {"name": "secretory leukocyte protease inhibitor (protein)", "chain": "SGKSFKAGVCPPKKSAQCLRYKKPECQSDWQCPGKKRCCPDTCGIKCLDPVDTPNPTRRKPGKCPVTYGQCLMLNPPNFCEMDGQCKRDLKCCMGMCGKSCVSPVKA"}}, "key": {"[1]": {"tested_on": "human mast cell tryptase", "experiment": "VIP assay for tryptase activity (Dns-VIP hydrolysis, HPLC/fluorescence, Dixon plot)", "assay_type": "biochemical", "conditions": "rate of loss of full-length VIP (1-28), 0.2 and 0.8 μM VIP, 37° C., read-out: Ki for inhibition of tryptase degradation of full length Dns-VIP", "method": "In a typical assay, mast cell tryptase (12.5 pM) was incubated at 37° C. with dansyl-VIP (0.2-2 μM) in 100 mM Tris-HCl (pH 8.0) containing 1 μg/ml porcine mucosal heparin and 0.02% Triton X-100 in a final volume of 2.0 ml. To some samples, secretory leukocyte protease inhibitor was added to a final concentration of between 0 and 107 nM. The tryptase was pre-incubated with the SLPI, if added, for 5 min. at 37° C. before initiating the reaction by the addition of Dns-VIP. Aliquots (250 μl) were removed at 0, 2.5, 5.0, 7.5, 10, and 20 minutes to micro-vials (Sunbrokers) and the reaction terminated by the addition of TFA to a final concentration of 3% (v/v). The acidified reaction mixture was subjected to chromatography on a C-18 reverse-phase column (Vydac, 5 micron, 0.46×25 cm). Peptide hydrolysis was monitored by HPLC using a Hewlett Packard HP1090 unit complete with binary solvent delivery and autoinjection capability. Fluorescent detection (postcolumn) was performed with an inline Gilson Model 121 filter fluorimeter (excitation at 310-410 nm, emission at 480-520 nm). Dns-VIP fragments were separated from any unconverted Dns-VIP using a linear gradient of 69:31 (v/v) to 50:50 (v/v) C:D over 5.5 minutes (C=100 mM sodium acetate, pH 6.5 plus 0.2% sodium azide, D=80% ACN in water), with return to 69:31 (v/v) C:D at 6.5 minutes. Chromatography was performed at 1.0 ml/min at 25° C. […]"}, "[2]": {"tested_on": "tryptase", "experiment": "GPK-AMC assay for tryptase activity (Dixon plot)", "assay_type": "biochemical, human", "conditions": "Table V footnote", "method": "Tryptase activity was measured according to the procedure of Schwartz, et al., J. Biol. Chem., 261, 7372-7379 (1986) , with minor modifications, using Gly-Pro-Lys-Aminomethylcoumarin (GPK-AMC) as a substrate. The reaction was performed in assay buffer (0.1M Tris, pH 8.0, 10 μg/ml heparin) at room temperature in a 96-well microtiter plate (Perkin-Elmer, Norwalk, Conn.). The amount of coumarin produced by tryptase was determined by measuring the fluorescence (ex=372 nm, em=432 nm) on a Perkin-Elmer LS-50B fluorimeter equipped with a plate reader. 50 μl of tryptase (final concentration of 333 pM) was mixed with either 50 μl of the sample to be tested or with assay buffer and incubated for 5 min. at room temperature. […] The fluorescence intensity was measured every 5 minutes. For samples that were being tested for modulators of tryptase activity, the % inhibition for each fraction was determined by:\nInhibitory activity against tryptase and bovine trypsin was measured using Gly-Pro-Lys-aminomethylcoumarin as a substrate. […] The amount of coumarin produced was determined by measuring the fluorescence (ex=370 nm, em=432 nm) on a Perkin-Elmer LS-50B fluorimeter. […] The reaction was started by the addition of the substrate GPK-AMC (20 or 40 μM final) and the increase in fluorescence was measured over a 2 minute period. […]"}}, "note": "“And” between values parts separate entries of the source, which are not always exact repeats. Equal entries are not always repeated. Where two headings read alike, the source gives them in different places."}
{"molecule": "B1", "values": [{"measurement": "Ki", "setting": "[1]; listed as Full SLPI", "result": 8, "unit": "nM"}, {"measurement": "Ki", "setting": "[1]", "result": "8 nM and ~8 nM"}, {"measurement": "Response in GPK-AMC tryptase assay", "setting": "[2]", "result": "biphasic response"}]}
